Experimental data taken from EP3464323B1.

Molecular target: CY5 fluorescently labeled CAS9 protein (S. pyogenes) (UniProt Q99ZW2)
Assay: fluorescence titration; 5 nM CY5-CAS9 titrated with peptide, quadratic fit

In the case of CADY (peptide), the Kd is reported as over 0.1 µM.
